# Laboratory results taken from IntAct's records for PubMed 14507921.
# B1: Anthrax toxin receptor 1 (Homo sapiens), Q9H6X2-2 (parent)
# chain: MATAERRALGIGFQWLSLATLVLICAGQGGRREDGGPACYGGFDLYFILDKSGSVLHHWNEIYYFVEQLAHKFISPQLRMSFIVFSTRGTTLMKLTEDREQIRQGLEELQKVLPGGDTYMHEGFERASEQIYYENRQGYRTASVIIALTDGELHEDLFFYSEREANRSRDLGAIVYCVGVKDFNETQLARIADSKDHVFPVNDGFQALQGIIHSILKKSCIEILAAEPSTICAGESFQVVVRGNGFRHARNVDRVLCSFKINDSVTLNEKPFSVEDTYLLCPAPILKEVGMKAALQVSMNDGLSFISSSVIITTTHCSDGSILAIALLILFLLLALALLWWFWPLCCTVIIKEVPPPPAEESEENKIK
# Variants of: B1
# Conditions: with pag_bacan pagA
row,Variant,effect of a mutation on the interaction
1,T118A,decreasing interaction
2,D50A,decreasing interaction
